Here are results for three sequences from PMC6779754.

GST-Bsx (zebrafish), sequence (Q6R3Q6 whole entry): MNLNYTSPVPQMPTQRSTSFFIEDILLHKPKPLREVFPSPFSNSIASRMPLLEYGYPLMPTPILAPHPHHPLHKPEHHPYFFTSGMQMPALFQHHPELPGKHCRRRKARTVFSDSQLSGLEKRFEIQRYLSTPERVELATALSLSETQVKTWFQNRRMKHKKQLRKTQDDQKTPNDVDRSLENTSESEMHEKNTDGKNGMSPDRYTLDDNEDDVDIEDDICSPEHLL

This data set concerns the target GST-Bsx (zebrafish) (UniProt Q6R3Q6). The data set is described as follows: EMSA. The settings on record: EMSA: DIG Gel Shift Kit (Roche) per manufacturer, 2.0 pmol GST-Bsx with 32 fmol DIG-oligonucleotide or 8 fmol DIG-147bp probe; buffer, pH and temperature not ….
On to “TCTCTGGATTATCCCCCTGTCTGACCCCAATCTGGCCACTCACTCCTGTAATCTGCCTAATCTGGACTCATGGGGTTCACATAAGAGCGCAGCGCCGGCTCTCCGGGCTTCATCTGCGGAGGTGTGCCGATCGTCCACTTCTCCATC (double strand) [wt147bp]”, for which the binding entry is “binds”.

Regarding “GATGGAGAAGTGGACGATCGGCACACCTCCGCAGATGAAGCCCGGAGAGCCGGCGCTGCGCTCTTATGTGAACCCCATGAGTCCATCGTAGGCAGATTACAGGAGTGAGTGGCCAGATTGGGGTCAGACAGGGGGATAATCCAGAGA (double strand) [147bp P4 mutant]”, the binding entry is given as “binds”.

For “GATGGAGAAGTGGACGATCGGCACACCTCCGCAGATGAAGCCCGGAGAGCCGGCGCTGCGCTCTTATGTGAACCCCATGAGTCCAGATTAGGCATCGTACAGGAGTGAGTGGCCAGATTGGGGTCAGACAGGGGGATAATCCAGAGA (double strand) [147bp P3 mutant]”, the binding result is on record as “binds more weakly”.
